From patent publication US7687614 (University of California, dated 2010)

Target: the molecule itself
Test: SDS-PAGE not boiled, fluorescence imaging of the gel

B1: tdimer2(12) (tandem dimer of dimer2 with the 12 residue linker) (other)
chain: MRGSHHHHHHGMASMTGGQQMGRDLYDDDDKDPMVASSEDVIKEFMRFKVRMEGSVNGHEFEIEGEGEGRPYEGTQTAKLKVTKGGPLPFAWDILSPQFQYGSKAYVKHPADIPDYKKLSFPEGFKWERVMNFEDGGVVTVTQDSSLQDGTLIYKVKFRGTNFPPDGPVMQKKTMGWEASTERLYPRDGVLKGEIHQALKLKDGGHYLVEFKTIYMAKKPVQLPGYYYVDTKLDITSHNEDYTIVEQYERSEGRHHLFLGHGTGSTGSGSSMVASSEDVIKEFMRFKVRMEGSVNGHEFEIEGEGEGRPYEGTQTAKLKVTKGGPLPFAWDILSPQFQYGSKAYVKHPADIPDYKKLSFPEGFKWERVMNFEDGGVVTVTQDSSLQDGTLIYKVKFRGTNFPPDGPVMQKKTMGWEASTERLYPRDGVLKGEIHQALKLKDGGHYLVEFKTIYMAKKPVQLPGYYYVDTKLDITSHNEDYTIVEQYERSEGRHHLFL
notes: Exact junctions (SphI/SacI sites, start Met of second copy) are not spelled out
binding result: binds
